Patent US20240218374

Molecular target: Spike S1 & S2 ECD (SARS-CoV-2) (UniProt P0DTC2)
Test: filter

Sequence “GGGANANNANGNGNNNGANNGNNNGGANG [26874-29_151]” has a Kd (BPEdU at 10, other dU Tyr-dU, dC Nap-dC, SB18T0.01, 37 C) of 0.78 nM.
With “GGGANANNANGNGNNNGANNGNNNGGANG [26874-29_122]” the Kd (BTdU at 14, other dU Tyr-dU, dC Nap-dC, SB18T0.01, 37 C) was 0.16 nM.
“GGGANANNANGNGNNNGANNGNNNGGANG [26874-29_123]” gave a Kd (Y=Tyr-dU, p=Nap-dC, position 14 POP-dU, value curated as assigned, Kd/Kd_20 1656) of 500 nM.
With “GGGANANNANGNGNNNGANNGNNNGGANG [26874-29_51]” the Kd (NapdU at 10, other dU Tyr-dU, dC Nap-dC, SB18T0.01, 37 C) was 0.36 nM.
“GGANANNANGNGNNNGANNGNNNGGANG [26874-29_21]” was tested, and the Kd (Y=Tyr-dU, p=Nap-dC, SB18T0.01, 37 C) was 2.2 nM.
Work on “GGGANANNANGNGNNNGANNGNNNGGANG [26874-29_154]” yielded a Kd (MBndU at 23, other dU Tyr-dU, dC Nap-dC, SB18T0.01, 37 C) of 0.43 nM.
“GGGANANNANGNGNNNGANNGNNNGGANG [26874-29_128]” showed a Kd (Y=Tyr-dU, p=Nap-dC, position 8 2NE-dU, value curated as assigned, Kd/Kd_20 1656) of 500 nM.
“GGGANANNANGNGNNNGANNGNNNGGANG [26874-29_148]” showed a Kd (MBndU at 8, other dU Tyr-dU, dC Nap-dC, low plateau) of 0.46 nM.
“GGGANANNANGNGHNNGANNGNNNGGANG [26874-29_102]” gave a Kd (ThdU at 14, other dU Tyr-dU, dC Nap-dC, SB18T0.01, 37 C) of 0.45 nM.
Work on “GGGANANNANGNGNNNGANNGNNNGGANG [26874-29_101]” yielded a Kd (ThrdU at 10, other dU Tyr-dU, dC Nap-dC, SB18T0.01, 37 C) of 0.36 nM.
“GGGANANNANGNGNNNGANNGNNNGGANG [26874-29_114]” gave a Kd (MOEdU at 23, other dU Tyr-dU, dC Nap-dC, SB18T0.01, 37 C) of 0.81 nM.
For “GGGANANNANGNGNNNGANNGNNNGGANG [26874-29_48]”, the Kd (FBndU at 8, other dU Tyr-dU, dC Nap-dC, SB18T0.01, 37 C) was 0.26 nM.
With “GGGANANNANGNGNNNGANNGNNNGGANG [26874-29_108]” the Kd (MOEdU at 8, other dU Tyr-dU, dC Nap-dC, SB18T0.01, 37 C) was 0.72 nM.
“GGGANANNANGNGNNNGANNGNNNGGANG [26874-29_85]” showed a Kd (PEdU at 23, other dU Tyr-dU, dC Nap-dC, low plateau) of 0.29 nM.
In the case of “GGGANANNANGNGNNNGANNGNNNGGANG [26874-29_82]”, the Kd (NEdU at 14, other dU Tyr-dU, dC Nap-dC, SB18T0.01, 37 C) is reported as 0.18 nM.
Sequence “GGGANANNANGNGNNNGANNGNNNGGANG [26874-29_90]” has a Kd (Y=Tyr-dU, p=Nap-dC, position 10 BF-dU, Kd/Kd_20 0.33) of 0.14 nM.
Work on “GGGANANNANGNGNNNGANNGNNNGGANG [26874-29_152]” yielded a Kd (MBndU at 14, other dU Tyr-dU, dC Nap-dC, SB18T0.01, 37 C) of 0.33 nM.
Sequence “GGGANANNANGNGNNNGANNGNNNGGANG [26874-29_58]” has a Kd (TrpdU at 8, other dU Tyr-dU, dC Nap-dC, SB18T0.01, 37 C) of 0.27 nM.
“GGGANANNANGNGNNNGANNGNNNGGANG [26874-29_86]” gave a Kd (BFdU at 5, other dU Tyr-dU, dC Nap-dC, SB18T0.01, 37 C) of 0.21 nM.
Work on “GGGAHANNANGNGNNNGANNGNNNGGANG [26874-29_96]” yielded a Kd (ThdU at 5, other dU Tyr-dU, dC Nap-dC, SB18T0.01, 37 C) of 0.27 nM.
“GGGANANNANGNGNNNGANNGNNNGGANG [26874-29_126]” showed a Kd (2NEdU at 5, other dU Tyr-dU, dC Nap-dC, low plateau) of 0.65 nM.
For “GGGANANNANGNGNNNGANNGNNNGGANG [26874-29_124]”, the Kd (BTdU at 23, other dU Tyr-dU, dC Nap-dC, SB18T0.01, 37 C) was 0.64 nM.
“GGGANANNANGNGNNNGANNGNNNGGANG [26874-29_59]” was tested, and the Kd (BndU at 8, other dU Tyr-dU, dC Nap-dC, SB18T0.01, 37 C) was 0.18 nM.
For “GGGANANNANGNGNNNGANNGNNNGGANG [26874-29_88]”, the Kd (BFdU at 8, other dU Tyr-dU, dC Nap-dC, SB18T0.01, 37 C) was 0.19 nM.
Work on “GGGANANNANGNGNNNGANNGNNNGGANG [26874-29_84]” yielded a Kd (NEdU at 23, other dU Tyr-dU, dC Nap-dC, SB18T0.01, 37 C) of 0.44 nM.
With “GGGANANNANGNGNNNGANNGNNNGGANG [OH-26874-29_332]” the Kd (Y=Tyr-dU, p=Nap-dC, position 7 DCPE-dC, protein construct inferred) was 0.13 nM.
With “GGGANANNANGNGNNNGANNGNNNGGANG [26874-29_99]” the Kd (ThrdU at 8, other dU Tyr-dU, dC Nap-dC, SB18T0.01, 37 C) was 0.24 nM.
For “GGGANANNANGNGNNNGANNGNNNGGANG [26874-29_134]”, the Kd (Y=Tyr-dU, p=Nap-dC, position 23 2NE-dU, very low plateau, faint spots) was 0.12 nM.
In the case of “GGGANANNANGNGNNNGANNGNNNGGANG [26874-29_118]”, the Kd (BTdU at 8, other dU Tyr-dU, dC Nap-dC, SB18T0.01, 37 C) is reported as 0.39 nM.
“GGGANANNANGNGNNNGANNGNNNGGANG [26874-29_132]” was tested, and the Kd (2NEdU at 14, other dU Tyr-dU, dC Nap-dC, SB18T0.01, 37 C) was 0.27 nM.
“GGGANANNANGNGNNNGANNGNNNGGANG [26874-29_107]” was tested, and the Kd (2NapdU at 5, other dU Tyr-dU, dC Nap-dC, SB18T0.01, 37 C) was 0.49 nM.
“GGGANANNANGNGNNNGANNGNNNGGANG [26874-29_94]” showed a Kd (BFdU at 23, other dU Tyr-dU, dC Nap-dC, SB18T0.01, 37 C) of 0.48 nM.
In the case of “GGGANANNANGNGNNNGANNGNNNGGANG [OH-26874-29_181]”, the Kd (2Nap-dC at 7, other dC Nap-dC, dU Tyr-dU) is reported as 0.2 nM.
“GGGANANNANGNGNNNGANNGNNNGGANG [26874-29_110]” gave a Kd (MOEdU at 10, other dU Tyr-dU, dC Nap-dC, SB18T0.01, 37 C) of 0.43 nM.
In the case of “GGGANANNANGNGNNNGANNGNHNGGANG [26874-29_104]”, the Kd (ThdU at 23, other dU Tyr-dU, dC Nap-dC, SB18T0.01, 37 C) is reported as 0.59 nM.
For “GGGANANNANGNGNNNGANNGNNNGGANG [26874-29_150]”, the Kd (Y=Tyr-dU, p=Nap-dC, position 10 MBn-dU, Kd/Kd_20 38) was 16 nM.
With “GGGANANNANGNGNNNGANNGNNNGGANG [26874-29_87]” the Kd (PPdU at 5, other dU Tyr-dU, dC Nap-dC, SB18T0.01, 37 C) was 0.25 nM.
“GGGANANNANGNGNNNGANNGNNNGGANG [26874-29_50]” showed a Kd (FBndU at 10, other dU Tyr-dU, dC Nap-dC, SB18T0.01, 37 C) of 0.31 nM.
“GGGANANNANGNGNNNGANNGNNNGGANG [26874-29_55]” showed a Kd (NapdU at 23, other dU Tyr-dU, dC Nap-dC, SB18T0.01, 37 C) of 0.25 nM.
For “GGGANANNANGNGNNNGANNGNNNGGANG [26874-29_103]”, the Kd (ThrdU at 14, other dU Tyr-dU, dC Nap-dC, SB18T0.01, 37 C) was 0.49 nM.
For “GGGANANNANGNGNNNGANNGNNNGGANG [26874-29_155]”, the Kd (BPEdU at 23, other dU Tyr-dU, dC Nap-dC, SB18T0.01, 37 C) was 0.17 nM.
For “GGGANANNANGNGNNNGANNGNNNGGANG [26874-29_92]”, the Kd (PPdU at 10 (Table 6B says BFdU), other dU Tyr-dU, dC Nap-dC, SB18T0.01, 37 C) was 0.18 nM.
“GGGANANNANGNGNNNGANNGNNNGGANG [26874-29_113]” was tested, and the Kd (2NapdU at 14, other dU Tyr-dU, dC Nap-dC, SB18T0.01, 37 C) was 0.32 nM.
In the case of “GGGANANNANGNGNNNGANNGNNNGGANG [26874-29_77]”, the Kd (Y=Tyr-dU, p=Nap-dC, position 5 PE-dU, Kd/Kd_20 0.32) is reported as 0.13 nM.
Sequence “GGGANANNANGNGNNNGANNGNNNGGANG [26874-29_95]” has a Kd (PPdU at 23, other dU Tyr-dU, dC Nap-dC, SB18T0.01, 37 C) of 0.42 nM.
“GGGANANNANGNGNNNGANNGNNNGGANG [26874-29_78]” gave a Kd (NEdU at 8, other dU Tyr-dU, dC Nap-dC, SB18T0.01, 37 C) of 0.24 nM.
In the case of “GGGANANNANGNGNNNGANNGNNNGGANG [26874-29_144]”, the Kd (iBudU at 23, other dU Tyr-dU, dC Nap-dC, SB18T0.01, 37 C) is reported as 0.57 nM.
For “GGGANANNANGNGNNNGANNGNNNGGANG [OH-26874-29_315]”, the Kd (Y=Tyr-dU, p=Nap-dC, position 12 PBn-dC, protein construct inferred) was 0.16 nM.
In the case of “GGGANANNANGNGNNNGANNGNNNGGANG [26874-29_57]”, the Kd (BndU at 5, other dU Tyr-dU, dC Nap-dC, SB18T0.01, 37 C) is reported as 0.21 nM.
“GGGANANNANGNGNNNGANNGNNNGGANG [26874-29_105]” gave a Kd (ThrdU at 23, other dU Tyr-dU, dC Nap-dC, SB18T0.01, 37 C) of 0.79 nM.
“GGGANANNANGNGNNNGANNGNNNGGANG [26874-29_72]” was tested, and the Kd (Y=Tyr-dU, p=Nap-dC, position 14 PBn-dU, Kd/Kd_20 0.33) was 0.14 nM.
With “GGGANANNANGNGNNNGANNGNNNGGANG [26874-29_153]” the Kd (Y=Tyr-dU, p=Nap-dC, position 14 BPE-dU, Kd/Kd_20 0.28) was 0.11 nM.
For “GGGANANNANGNGNNNGANNGNNNGGANG [26874-29_125]”, the Kd (POPdU at 23, other dU Tyr-dU, dC Nap-dC, low plateau) was 0.37 nM.
“GGGANANNANGNGNNNGANNGNNNGGANG [26874-29_53]” was tested, and the Kd (NapdU at 14, other dU Tyr-dU, dC Nap-dC, SB18T0.01, 37 C) was 0.2 nM.
“GGGANANNANGNGNNNGANNGNNNGGANG [26874-29_62]” was tested, and the Kd (Y=Tyr-dU, p=Nap-dC, position 14 Trp-dU, Kd/Kd_20 0.30) was 0.13 nM.
“GGGANANNANGNGNNNGANNGNNNGGANG [26874-29_115]” gave a Kd (2NapdU at 23, other dU Tyr-dU, dC Nap-dC, SB18T0.01, 37 C) of 0.46 nM.
“GGGANANNANGNGNNNGANNGNNNGGANG [26874-29_66]” gave a Kd (PBndU at 5, other dU Tyr-dU, dC Nap-dC, SB18T0.01, 37 C) of 0.19 nM.
“GGGANANNANGNGNNNGANNGNNNGGANG [26874-29_80]” gave a Kd (NEdU at 10, other dU Tyr-dU, dC Nap-dC, SB18T0.01, 37 C) of 0.16 nM.
“GGGANANNANGNGNNNGANNGNNNGGANG [26874-29_68]” showed a Kd (PBndU at 8, other dU Tyr-dU, dC Nap-dC, SB18T0.01, 37 C) of 0.21 nM.
For “GGGANANNANGNGNNNGANNGNNNGGANG [26874-29_138]”, the Kd (iBudU at 8, other dU Tyr-dU, dC Nap-dC, SB18T0.01, 37 C) was 0.59 nM.
With “GGGANANNANGNGNNNGANNGNNNGGANG [26874-29_97]” the Kd (ThrdU at 5, other dU Tyr-dU, dC Nap-dC, SB18T0.01, 37 C) was 0.29 nM.
“GGGANANNANGNGNNNGANNGNNNGGANG [OH-26874-29_328]” gave a Kd (Y=Tyr-dU, p=Nap-dC, position 20 DPP-dC) of 0.038 nM.
Work on “GGGANANNANGNGNNNGANNGNNNGGANG [26874-29_89]” yielded a Kd (PPdU at 8, other dU Tyr-dU, dC Nap-dC, SB18T0.01, 37 C) of 0.2 nM.
